Measurements from the supplement of paper PMC7877785.
± gives the uncertainty stated by the source.

Test: self-splicing fitness, log relative to wild type (ln ratio); higher = more splicing; Tetrahymena group I intron in knt gene, E. coli kanamycin selection, DiMSum; sequences stand for … in CUCUCU…GGAGGGAAAAGUUAUCAGGCAUGCACCUGGUAGCUAGUCUUUAAACCAAUAGAUUGCAUCGGUUUAAAAGGCAAGACCGUCAAAUUGCGGGAAAGGGGUCAACAGCCGUUCAGUACCAAGUCUCAGGGGAAACUUUGAGAUGGCCUUGCAAAGGGUAUGGUAAUAAGCUGACGGACAUGGUCCUAACCACGCAGCCAAGUCCUAAGUCAACAGAUCUUCUGUUGAUAUGGAUGCAGUUCACAGACUAAAUGUCGGUCGGGGAAGAUGUAUUCUUCUCAUAAGAUAUAGUCGGACCUCUCCUUAAUGGGAGCUAGCGGAUGAAGUGAUGCAACACUGGAGCCGCUGGGAACUAAUUUGUAUGCGAAAGUAUAUUGAUUAGUUUUGGAGUACUCGUGGUCG
How it was run: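 Colonies from six replicate transformations of E. coli BL21(DE3) were pooled and amplicon-sequenced on an Illumina HiSeq 2500. The library placed an intron with all eight P1ex-region nucleotides randomised inside the knt kanamycin-resistance gene on pET-22b(+), and cells grew overnight at 37°C or 30°C on LB agar with or without 25 μg/mL kanamycin (plus 100 μg/mL carbenicillin, 50 μM IPTG, 0.2% rhamnose). Fitness is the DiMSum error-weighted combination of wild-type-normalised replicate fold changes, kanamycin versus none.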

| Sequence | self-splicing fitness (ln) (30 °C) | self-splicing fitness (ln) (37 °C) |
| --- | --- | --- |
| ACGGAGCAAUAUUACGGAAC | -3.05 ± 0.27 | -3.62 ± 0.47 |
| CGACAGCAAUAUUACGGCAG | -0.376 ± 0.083 | 0.289 ± 0.094 |
| ACUUAGCAAUAUUACGGUGC | -3.78 ± 0.24 | -1.06 ± 0.17 |
| GACGAGCAAUAUUACGAUGG | -3.7 ± 0.17 | -3 ± 0.2 |
| CAUAAGCAAUAUUACGUGCU | -3.19 ± 0.3 | -1.89 ± 0.27 |
| GGACAGCAAUAUUACGAGUU | -3.64 ± 0.19 | -1.24 ± 0.11 |
| AGCGAGCAAUAUUACGCCCU | -1.34 ± 0.35 | -0.0906 ± 0.22 |
| UCGGAGCAAUAUUACGGCCC | – | -2.31 ± 0.45 |
| UCUGAGCAAUAUUACGGUUA | -2.82 ± 0.18 | -2.05 ± 0.14 |
| GGUGAGCAAUAUUACGAAAA | -2.57 ± 0.32 | -2.66 ± 0.38 |
| CCAUAGCAAUAUUACGUUGG | -4.37 ± 0.25 | -3.27 ± 0.24 |
| AGGCAGCAAUAUUACGAUAA | -1.82 ± 0.11 | -2.3 ± 0.16 |
| ACGUAGCAAUAUUACGAUUA | -0.625 ± 0.12 | -0.514 ± 0.11 |
| CACCAGCAAUAUUACGUAAC | -2.87 ± 0.13 | -0.914 ± 0.14 |
| CUUCAGCAAUAUUACGAGCA | – | -2.16 ± 0.28 |
| UGCAAGCAAUAUUACGGACA | -0.633 ± 0.12 | -0.0695 ± 0.16 |
| GUCGAGCAAUAUUACGUAGG | -3.66 ± 0.18 | -2.08 ± 0.16 |
| GGGGAGCAAUAUUACGUCGU | -2.77 ± 0.18 | -1.63 ± 0.21 |
| UGACAGCAAUAUUACGAUGA | -0.596 ± 0.068 | -0.119 ± 0.082 |
| AAUCAGCAAUAUUACGAUCU | 0.0008 ± 0.059 | 0.914 ± 0.088 |
| CCCUAGCAAUAUUACGCUAC | -2.96 ± 0.34 | -1.84 ± 0.43 |
| UAAUAGCAAUAUUACGUCAG | -2.58 ± 0.25 | -1.56 ± 0.2 |
| GGAUAGCAAUAUUACGGGUC | -4.23 ± 0.46 | -2.64 ± 0.29 |
| GACAAGCAAUAUUACGUGGA | -3.18 ± 0.16 | -1.42 ± 0.1 |
| GAAGAGCAAUAUUACGGUGG | -4.19 ± 0.33 | -3.17 ± 0.32 |
| GUAGAGCAAUAUUACGAACU | -1.19 ± 0.23 | -0.867 ± 0.24 |

| Sequence | self-splicing fitness (ln) (30 °C) | self-splicing fitness (ln) (37 °C) |
| --- | --- | --- |
| CUCGAGCAAUAUUACGGCGA | -3.88 ± 0.46 | -2.61 ± 0.36 |
| AUUUAGCAAUAUUACGCGUA | -1.36 ± 0.12 | -1 ± 0.14 |
| CGCAAGCAAUAUUACGGAUC | -2 ± 0.19 | -2.21 ± 0.18 |
| UGGAAGCAAUAUUACGGAUC | -2.47 ± 0.34 | -1.54 ± 0.24 |
| CGUCAGCAAUAUUACGACGC | – | -3.2 ± 0.32 |
| AUUAAGCAAUAUUACGGGAC | -3.35 ± 0.22 | -0.882 ± 0.17 |
| GGGGAGCAAUAUUACGGCAC | -1.39 ± 0.18 | -1.06 ± 0.3 |
| AAUCAGCAAUAUUACGACUA | 0.113 ± 0.14 | -0.783 ± 0.12 |
| UUUGAGCAAUAUUACGAGAG | -2.2 ± 0.32 | – |
| UCCGAGCAAUAUUACGCGUU | -3.39 ± 0.12 | -1.95 ± 0.13 |
| AGUGAGCAAUAUUACGAAGU | -2.49 ± 0.26 | 0.907 ± 0.22 |
| ACCGAGCAAUAUUACGAACA | -3.15 ± 0.47 | -1.43 ± 0.17 |
| CCGCAGCAAUAUUACGAAAG | -0.925 ± 0.066 | 0.125 ± 0.084 |
| AGGGAGCAAUAUUACGACCA | -1.14 ± 0.18 | -0.171 ± 0.19 |
| GUAGAGCAAUAUUACGGUUG | -2.62 ± 0.15 | -1.13 ± 0.22 |
| UGGUAGCAAUAUUACGUUUU | -3.96 ± 0.24 | -2.32 ± 0.16 |
| UACCAGCAAUAUUACGUGCC | -3.35 ± 0.24 | -0.584 ± 0.19 |
| UUCUAGCAAUAUUACGGAGC | -2.48 ± 0.44 | – |
| GCUUAGCAAUAUUACGUGUA | -1.03 ± 0.077 | -0.175 ± 0.083 |
| AUCUAGCAAUAUUACGGAAG | -1.99 ± 0.12 | -0.947 ± 0.15 |
| UACAAGCAAUAUUACGUCUA | -0.798 ± 0.049 | 0.00361 ± 0.068 |
| GGGCAGCAAUAUUACGGAAC | -1.22 ± 0.1 | -1.75 ± 0.15 |
| GGCCAGCAAUAUUACGUGCG | -1.17 ± 0.06 | -0.564 ± 0.079 |
| UAGUAGCAAUAUUACGCCAC | – | -1.56 ± 0.4 |
| GGGGAGCAAUAUUACGUAUA | -1.69 ± 0.47 | -2.35 ± 0.39 |
| AAGAAGCAAUAUUACGCAAA | -2.71 ± 0.24 | -0.539 ± 0.16 |

| Sequence | self-splicing fitness (ln) (30 °C) | self-splicing fitness (ln) (37 °C) |
| --- | --- | --- |
| UGCCAGCAAUAUUACGUAGU | -3.91 ± 0.21 | -1.87 ± 0.13 |
| AGUGAGCAAUAUUACGAGCA | -0.561 ± 0.11 | -0.436 ± 0.11 |
| GUGAAGCAAUAUUACGUGAC | -2.77 ± 0.23 | -2.18 ± 0.27 |
| UCUAAGCAAUAUUACGGCGG | -0.251 ± 0.076 | -0.431 ± 0.096 |
| AUGGAGCAAUAUUACGCGAU | -2.66 ± 0.49 | -1.82 ± 0.4 |
| CCCUAGCAAUAUUACGCGUU | -3.65 ± 0.19 | -2.72 ± 0.17 |
| AUCGAGCAAUAUUACGGAAU | -3.47 ± 0.21 | -1.79 ± 0.18 |
| CGAUAGCAAUAUUACGGUAC | -3.93 ± 0.24 | -2.89 ± 0.25 |
| CUGGAGCAAUAUUACGUUAA | -3.18 ± 0.37 | -2.05 ± 0.24 |
| AUGCAGCAAUAUUACGGCCU | 0.794 ± 0.13 | 0.0607 ± 0.16 |
| UGCAAGCAAUAUUACGGACU | -0.763 ± 0.077 | 0.286 ± 0.093 |
| ACGUAGCAAUAUUACGCCGG | -1.28 ± 0.11 | -0.915 ± 0.17 |
| GCGUAGCAAUAUUACGCACC | -4.01 ± 0.37 | -1.49 ± 0.34 |
| UGUAAGCAAUAUUACGUUGA | -2.71 ± 0.18 | -1.28 ± 0.16 |
| UUCCAGCAAUAUUACGCAAA | -1.42 ± 0.12 | -0.0764 ± 0.13 |
| AGUGAGCAAUAUUACGGACU | -1.28 ± 0.12 | -0.761 ± 0.13 |
| CCGGAGCAAUAUUACGGAUC | -2.42 ± 0.31 | – |
| AACCAGCAAUAUUACGAGUU | -3.37 ± 0.16 | -1.78 ± 0.14 |
| UCGUAGCAAUAUUACGUAGA | -0.639 ± 0.14 | 0.461 ± 0.14 |
| AGUCAGCAAUAUUACGACUA | -0.831 ± 0.16 | 0.0945 ± 0.14 |
| GGUAAGCAAUAUUACGACAA | -0.393 ± 0.1 | -0.112 ± 0.16 |
| GCGUAGCAAUAUUACGAUAA | -0.962 ± 0.21 | -0.707 ± 0.24 |
| AUCUAGCAAUAUUACGCUUA | -1.44 ± 0.1 | -0.971 ± 0.096 |
| UCGAAGCAAUAUUACGACUU | -1.14 ± 0.21 | -2.8 ± 0.23 |
| GAUUAGCAAUAUUACGAAGA | -1.25 ± 0.43 | -0.415 ± 0.38 |
